Source: doi:10.1101/580944 (bioRxiv, 2019)
Like-named read-outs stand apart in the source and are kept apart here. Each block holds one molecule with its values, some of them ahead of it.

Tests used:
FtsZ (E. coli) [1] = target: T1, FtsZ (E. coli (by the printed UniProt entry; not said in words for the construct)); assay: FRAP
FtsZ (E. coli) [2] = target: T1, FtsZ (E. coli); assay: single molecule tracking
FtsZ (E. coli) [3] = target: T1, FtsZ (E. coli); assay: single molecule tracking; remark: listed apart in the source
SEC = target: the molecule itself; assay: SEC

- FRAP recovery half-time (at 6.0 μM ZapA) (FtsZ (E. coli) [1]): 6.66 s
- FRAP recovery half-time (in the absence of ZapA) (FtsZ (E. coli) [1]): 7.63 s
- lifetime of single FtsZ monomers in the filaments (with ZapA) (FtsZ (E. coli) [2]): 6.01 s
- lifetime of single FtsZ monomers in the filaments (without ZapA) (FtsZ (E. coli) [2]): 6.59 s
Molecule: FtsZ (natural protein)

- lifetime of single molecules on FtsZ filaments (FtsZ (E. coli) [3]): 0.95
- FRAP recovery half-time (FtsZ (E. coli) [1]): 3.01 s
- lifetime of single molecules on FtsZ filaments (FtsZ (E. coli) [2]): 0.94 s
Molecule: ZapA-Cy5 (natural protein)

B1: ZapA (natural protein, UniProt P0ADS2 1-109, looked up)
chain: MSAQPVDIQIFGRSLRVNCPPDQRDALNQAADDLNQRLQDLKERTRVTNTEQLVFIAALNISYELAQEKAKTRDYAASMEQRIRMLQQTIEQALLEQGRITEKTNQNFE
- binding result (SEC): binds
